# Reference: patent US20030226164, “Lambda integrase mediated recombination in plants” (Syngenta Participations AG, published 2003)
# Residue numbers refer to the chain shown, from its start.
# T1: Lambda Int-h (SynInt-h) E174K (Bacteriophage lambda) (UniProt P03700)
# T1 sequence: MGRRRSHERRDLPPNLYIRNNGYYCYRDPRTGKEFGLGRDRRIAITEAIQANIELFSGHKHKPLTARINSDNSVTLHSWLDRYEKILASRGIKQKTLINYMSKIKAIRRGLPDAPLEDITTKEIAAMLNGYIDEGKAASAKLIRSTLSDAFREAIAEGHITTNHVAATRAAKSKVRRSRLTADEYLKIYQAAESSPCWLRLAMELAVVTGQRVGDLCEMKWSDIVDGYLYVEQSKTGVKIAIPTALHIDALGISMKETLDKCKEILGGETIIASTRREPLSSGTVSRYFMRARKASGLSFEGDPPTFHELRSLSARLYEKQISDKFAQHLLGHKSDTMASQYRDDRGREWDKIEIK
# T2: Lambda Int-h/218 E174K,E218K (Bacteriophage lambda) (UniProt P03700)
# T2 sequence: T1 sequence with E218K
# T3: Lambda Int-h (SynInt-h) (Bacteriophage lambda, UniProt P03700 SEQ:1-356, E174K)
# T3 sequence: T1 sequence
# T4: Lambda Int-h/218 (Bacteriophage lambda, UniProt P03700 SEQ:1-356, E174K,E218K)
# T4 sequence: T1 sequence with E218K
# B1: attB (dsDNA)
# DNA 1: TGAAGCCTGCTTTTTTATACTAACTTGAGCG
# DNA 2: CGCTCAAGTTAGTATAAAAAAGCAGGCTTCA
# Legend:
# [1] = target: T1, Lambda Int-h (SynInt-h) E174K (Bacteriophage lambda); experiment: cell_activity; conditions: attP x attB without IHF, maize BMS cells
# [2] = target: T2, Lambda Int-h/218 E174K,E218K (Bacteriophage lambda); experiment: cell_activity; conditions: attP x attB without IHF, maize BMS cells
# Lambda Int-h (SynInt-h) = target: T3, Lambda Int-h (SynInt-h); experiment: cell_activity; attB x attP without IHF, maize BMS cells; conditions: chain copies: 4
# Method: (§1) Bombarded BMS cells are incubated in the dark at 28° C. for 48 hours. After incubation, the cells are assayed for luciferase expression levels.
# Lambda Int-h/218 = target: T4, Lambda Int-h/218; experiment: as above; conditions: chain copies: 4
# Method: as §1
Molecule,activity (fold luciferase over substrate alone) [1],activity (fold luciferase over substrate alone) [2],activity (Lambda Int-h (SynInt-h)),activity (Lambda Int-h/218)
TCTGTTACAGGTCACTAATACCATCTAAGTAGTTGATTCATAGTGACTGCATATGTTGTGTTTTACAGTATTATGTAGTCTGTTTTTTATGCAAAATCTAATTTAATATATTGATATTTATATCATTTTACGTTTCTCGTTCAGCTTTTTTATACTAAGTTGGCATTATAAAAAAGCATTGCTTATCAATTTGTTGCAACGAACAGGTCACTATCAGTCAAAATAAAATCATTATTTGATTTC (double strand) [attP],15,49,–,–
B1,–,–,15 fold luciferase over substrate alone,49 fold luciferase over substrate alone
